This data set is described as follows: label from the status in PepcDB records.
As to “MADFLLELRSEEIPAGLQKMAVEKLAELLSAKLKEAGINPTKIEKYATPRRIALLMRDLPAKTEAVQEERRGPRADAPEKALAGFLRSTGLTKEELELRETPKGNFYYAHIEKPGQTLIALLGEAIPAIIKTFPWPKSMRWGNFSASSESLRWVRPLKGIVALIDEQLIPIELDGITSGTETKGHPFHHPDVVTLAKASDYPEKMAAAHVMIDFDARVQKITDEARKAAQKAGLTLIEDAALAQENAGLTEWPVPLLGRFDEAYLAVPREVIQLTMRTNQKYFACTDRNQDLAAVFICVADMEAQDGGKEITQGNEKVLSARLADARFFWEQDLKIPLEDWLPRLDSVLFYEGMGSVGDKAKRIAHLSGYIADQIGADRKQAERAGLLAKADLASNMVGEFPELQGVMGGYYAKAGNEAPDVVSAVSGQYQAEAGAGVAAAVSLADRIDSLACFFVRNIRPTGSKDPFALRRAAVQIIQTIIAHQLRLPLTPLFEKAGAGDQIESLLAFITERLKVQQREAGIRYDLIDAVLALGYEDDVIRLLARVQALQSFIESEDGSDLLAGYRRAVNILKGSEASEKGDISQEDIEQPEQDLQKALQAIEAPLEQALKAEDYAAAMTALASLRQPIDQFFDKVIVNHDKAGIRSRRLALLEQIRTAMHQVADFSVVEALTIEASGRKR”, the protein production result is “failed”.
Take “MVKHARVRAPELVGRGGWINTGDRELSLAALRGRIVVLDFWTFCCVNCLHALDELRELEERHRDTVVIVGVHSPKFTHEAEHRAVLDAVERYSVEHPVLDDPERVTWRQYAVRAWPTLAVIDPEGYVVAQYTGEGHAHAIQRLVEELEARHAAKGTLRRGDAPYVAPEPEPTTLRFPGKAVSLPSGTFLVSDTTRHQLVELAEDGESPVRRIGSGRRGFTDGPADRAEFSEPQGLALLGDGSVVVADTVNHALRRYEPVTGEVTTLAGTGRQHRPGEPSRGAARAVSLSSPWDVALWNDRVWIAMAGVHQLWAYDPRDGSVTVTAGTGNEGLVDGPGPEAWFAQPSGLSATDDRLWVADSETSALRWVELDGTVRTAVGTGLFDFGHRDGPAARALLQHPLGVAALPDGSVVVADTYNHALRRYAPPTGEVSTLATDLREPSDAVVVGGDVLVVESARHRLTRLRLPHDALGTGSGEAVLRGTTEAAPGTLRLEVAFRALAGQKLDQRYGPATRLLVSATPPELLRAGEGAGTELSRSLDLDPSVPEGMLHVSATAASCDDDLDVPYPACHVHQKDWKIPVRLVEGASDRLPLVLTGVDTA”: the protein production result is listed as “failed”.
With “MSVELEESQVCEACGCAGEIGFIIKEGDEVADVTIFAETKDALESELAKYIELAKSVCAGVEYNVSELTEESKELTARFKFEVSAEKLIFELKTRSLARLEHHHHHH”, the protein production entry is “not failed”.
Then “MIELEVVIRTVASFGLLLIAERILGKQTISQMTIFDFIAAITLGAIAAGLAYNTSIKPHNMAISFSIFVLTIFLISFLSIKNRKLRKFFAGDPTVLIQNGKILESNMRKMRYTLDYLNQQLREKEIFNIEEVLFAILETNGQLTVLRKPQFRHVTKQDLMIAVNQEQRLPIELIMDGEIIENNLKQNRLTESWLLEELRKRDIKVKETVYAVLLGNGDIYVDQYKDHISVPMDKE”, with “failed”; and “MMENQVNEQTVTSPENGSSATGYNSGIWDGLSVVALIGGAIASVVLPANPAAGVIPVAAGVGLHLFNRKQLEEHLLANQRATAAQIVQLVNQNQAHLQEYLQKFQGDIQTSLGQQQQAIAANQENLTKALAEKSLALQGKLEAFQAAAAQTHAGLDIKHQDLLAVVTELRTMEGCTQSLAAYPHAEAYYQRGLSHYRLEDWAEAVRDCTEAIRLRGDLAGAFHHRGMAYARLDNRKQATDDLRQAYKLYFDQGDLDSYEVARALHKQYYEGPVEDLELEPTPVMPPAEGVGHEAYIADPDREIKPLLAEESDTTAANLFG”, with “failed”; and “MYSPIPPSLFQQIQPAYCGQEFILLRDNEEYKEIIVQAGRTYEISLMVESENSYIAWDFSLTQGKITMVIIFKTKYVTVNHLIAFSDD”, with “failed”.
“MDIKDLMKKWSEQAENMRMFHMQELKENGSEWKKLLQENLKDCKGKKVLDAGCGTGFLAILLAQDGWEVTAIDSSEAMLEEGKKTAEELGLSDKITFLLKDAHSTDFPEHLFDAVVSRHASWLFTAPETVYKEWKRILKPGGIMLNIDANWLKPIWNTDEFEKFKSYEAELVKQYGEFRDYYHDEQMINILKKFPLAYINRPEWDEKMLKKIDFKEIASRLLSKEKYMDAFQAARYKTIPMFVIKAKNIE”: the protein production entry was “failed”.
To “MLARRIVAKHVTKTTALAMLGTTIVLVILQVLFTYLGELSNLKADYSAWQAFLYVLWGAPRYLYEILPISALIGAILGLGTLASNSELIVMRSVGISLWRIVGWVIRSALVLVLLSFALSEWVVPYTNERANSVKSHQSVAALGEVRGYWSREGQRFIYVDYANSQGQLKRIQVVDFDDNYRLKSVTNAEQGQFVKDGQWLLNHSQQMAIQGQGDAVLANAAKQPFSLALQPKYVHMVTIDPEDLSFSQLVSFMNYMREYSQVPKTYQLAFWKKVASPFALITLVLVACSFIFGPLRQQSMGFRLVIALFIGLGFYYLQDFLGYASLVYNPSPAWFVLGPIVLMFVAGSYLLYRAR” belongs “failed”; to “MTSRIQMHRTSPPPAYGTSAPPSGFTLGASTTSTLQRWALPLLLVAFGLFYLLPLTSHGLWIPDETRYAQISQEMLLSGDWVAPHFMGIRYFEKPIAGYWLIAIGQAVFGDNLFGVRIASALSTGLSVLLAYLITRRMWNDPRKSFAAALLYMSFGLIAGQAGYSNLDPQFTLWVNLSLVALWFALDGRSTRERLLAWAGLGVACGMGFMTKGFLAWLLPVLIALPYMIWQRRLGELVRYGLVAVLVAIGISLPWVLSIHAHEPDFWRFFFWHEHIRRFAADNAQHTRPWWFYLPLLVASSLPWAALLPGTFMQAWKDKRQAPTGFLLLWFLLPLAFFSLSRGKLPTYIMPCLLPLAVLMGSALIDRINAIQGRSIRINSLLNLLIGVAAMVALLYIQLTRPVYGHNEMLGLSLVFIMLMGWIIANLLPAARPLQYWPAPALGIWLLVALLPAGMPGFIVHNQMPDQFIKEHIEELRQTKTLLSNDLGAASALAWRLQRPEVTLYNTEGELKYGLAYADSAQRKVSMAEVGQWVSEARKQGSVGVVMRVKDVVESEEVALLPPGGKRYEEGNMLVLILPQSQP”, “failed”; to “MSLIMITAEMVPPDLLIKRLAIYLKENVKTVDPPEWALLAKTASFKERVPDNAEDWWYIRAASLLRKLYVNSIIGIEKTRTIYGGRKRRGTRPEKFVKAPGHVNRLIFQQLEKAGLVQKIKNKGRSLSPKGRSLLDKLALEIFKELAENNTSLKVYLELEHHHHHH”, “not failed”.
Take “MLQAGTKKFLREYGSTCAPLFLALGVCLICCLPAACPKENFIDENAISVSRVPVITGMLGELHMDTRISQYTRVVRGRRSVGSESIAVYVNAAFESSVVLANHLIYVLREKENMACDTNFYFFNDTSKDWPIPDSFVRAAIVINVTSFHTNNLCFNVFGANGMQPNQDLFNLAVAIAEKWRFNIDVLCQNPYISFSTSRPIYEHYFLALQTALVAPLRYQPWYKMRSRGISLLAISTEKSERRTKSSYGYNMAAAHEQLIATLSYLHERFHHSTSVWIPLSVDQYVEYDVIQFATILFVASLLSTCYSIYEVEGFSFSPCAALVSATGLAALVSTLNFGTAGFFVSSGVLTVGLGAFSWDMSWGAINAVVLCLLIILQPVAGLVMGFGATLQLQFIHVRCRKWHVLLIGAILSWIVLVALTEVMKAKLFDTETTAGVYFSFFLYPNALWISSRLIRSTLGA”: the protein production result is “failed”.
Turning to “MSADSNSTDADPTAHWSFETKQIHAGQHPDPTTNARALPIYATTSYTFDDTAHAAALFGLEIPGNIYTRIGNPTTDVVEQRIAALEGGVAALFLSSGQAAETFAILNLAGAGDHIVSSPRLYGGTYNLFHYSLAKLGIEVSFVDDPDDLDTWQAAVRPNTKAFFAETISNPQIDLLDTPAVSEVAHRNGVPLIVDNTIATPYLIQPLAQGADIVVHSATKYLGGHGAAIAGVIVDGGNFDWTQGRFPGFTTPDPSYHGVVFAELGPPAFALKARVQLLRDYGSAASPFNAFLVAQGLETLSLRIERHVANAQRVAEFLAARDDVLSVNYAGLPSSPWHERAKRLAPKGTGAVLSFELAGGIEAGKAFVNALKLHSHVANIGDVRSLVIHPASTTHAQLSPAEQLATGVSPGLVRLAVGIEGIDDILADLELGFAAARRFSADPQSVAAF”, the protein production result is reported as “not failed”.
In the case of “MFSAKKRDKCIGEMSEKQLDLLVIGGGITGAGIALDAQVRGIQTGLVEMNDFASGTSSRSTKLVHGGLRYLKQFEIKLVAEVGKERAIVYENAPHVTTPEWMLLPIFKDGTFGKFSTSLGLKVYDYLADVRKDERRYMLNEKQTLEKEPLLRKENLKGGGIYVEYRTDDARLTLEIMKEAVARGAVALNYMKVESFIYDQGKVVGVVAKDRLTDTTHTIYAKKVVNAAGPWVDTLREKDRSKHGKYLKLSKGVHLVVDQSRFPLRQAVYFDTESDGRMIFAIPREGKTYIGTTDTFYDKDIASPRMTVEDRDYILAAANYMFPSLNLTADDVESSWAGLRPLIHEEGKKASEISRKDEIFFSDSGLISIAGGKLTGYRKMAERTVDAVAQGLNVNEPCTTAAIRLSGGLAEGAQGFPRFLDEASRKGAKLGFDADEVRRLAKLYGSNVDHVLNYAYEGKEEAEHYGLPALLLGQLQYGVEQEMVATPLDFFVRRTGALFFNISLVHQWKEAVLRWMAEEFSWTEEEKTRFQNELETELKMAVDPLFQVEPTTVLEHHHHHH”, the protein production entry is on record as “not failed”.
Then “SEDTMDRINKDHDHTTSVASRFILADVITSTAFSNASGDINTYASSYIEYEVGVDNQLYYAEVRENEPSSSSTFNNSWNGIYSSLKNARIIIDQCGEGGRDHGNDVTRGMAEVMAAYNCALIADFFGDAPCSQAALVDEKGSPVYMTPKMDTQQEIYTQIISYLDDAIANLQKEDLADVTEQDFLYAGDADKWLKFAYGLKARYTMRLINRSSNKSADYEKVLDYVSKSFTSADDQAAFDIYDSNNINPFYGFYNSRAGFGASTSLGTKLLAYNDPRANRAFFTPIVDKKRSQVAANDPSLVPAPNGSPDQSTSKYGISAFVYAKTAPTLLMSYHELMFLKAEALCRLNRDAEDALKEAVVAGLLNAENSISIAIKELGSGLNTNSSEVITETSAGKYFDDVVKAKYAANPLQETMIQKYLAMWGASGEATETYNDFRRMKGLNENFITLTNPNNSSKFPLRYPYGNSDTAANPEVKAAYGNGDYVYSEPVWWAGGSR”, with “not failed”.
Take “MHSTPKRVLLAGATGLTGEHLLDRILSEPTLAKVIAPARKALAEHPRLDNPVGPLAELLPQLDGSIDTAFCCLGTTIKEAGSEEAFRAVDFDLPLAVGKRALEMGARHYLVVSALGADAKSSIFYNRVKGELEQALQEQGWPQLTIARPSLLFGPREEFRLAEILAAPIARILPGKYHGIEACDLARALWRLALEEGKGVRFVESDELRKLGK”: the protein production entry is “not failed”.
As to “TQNLREKQEIAKRAACDIQDHECIFLDAGSSTFELIQYIEAKDITVVTNGMTHVEELLKHGIKTLMVGGQVKPTTMATVGANALETLRRYCFDRAFIGMNGIDVKYGLTTPDEQEALIKETAMKLSNHKYVLVDQSKFNQIYFARVSILDGLSIITSQKAMQSKMTEAYMNEFNFIGGKS”, the protein production entry was “failed”.
To “MSLQLDEYLRQLAPSMTQWRRDFHLHAESGWLEFRTASKVADILDGLGYQLALGRDVIDADSRMGLPDEETLARAFERAREQGAPERWLPAFEGGFAGVVATLDTGRPGPTLAFRVDMDALDLNEQHDDSHRPHRDHFASCNAGMMHACGHDGHTAIGLGLAHVLKQYAAQLNGVIKLIFQPAEEGTRGARAMVAAGVVDDVDYFTAIHIGTGVPAGTVVCGGDNFMATTKFDVQFSGVAAHAGGKPEDGRNALLAAAQAALGLHAIPPHSAGASRVNVGVMQAGTGRNVVPSSALLKVETRGESEAINQYVFERAQHVVAGAAAMYEARYELRMMGAATASAPSPAWVDYLREQAARVPGVQQAVDRIAAPAGSEDATLMMARVQARGGLASYMIFGTELSAGHHNEKFDFDESVMAVAVETLARVALNFPWQRGVEGHHHHHH” belongs “not failed”.

These data come from a protein production outcome set (Wang et al. 2014).
